Laboratory results as given in publication PMC9313131.

Columns and labels:
[1] = target: CDC37 (cell division cycle 37), wild type, full-length (human) (UniProt Q16543); test: ITC; in most cases sBRAF construct at 350 μM injected into 30 μM CDC37 at 20 °C; 20 mM Tris pH 7.5, 1 mM EDTA, 200 mM NaCl; ITC200
sBRAF L597R (human) = sBRAF L597R (human) (UniProt P15056); test: SEC; Superdex 200 Increase 10/300 GL; 50 mM HEPES pH 7.5, 300 mM NaCl, 0.5 mM TCEP, 1 mM EDTA; relative molecular mass against gel-filtration standards

Chain of CDC37 (cell division cycle 37), wild type, full-length (human) (Q16543 whole entry): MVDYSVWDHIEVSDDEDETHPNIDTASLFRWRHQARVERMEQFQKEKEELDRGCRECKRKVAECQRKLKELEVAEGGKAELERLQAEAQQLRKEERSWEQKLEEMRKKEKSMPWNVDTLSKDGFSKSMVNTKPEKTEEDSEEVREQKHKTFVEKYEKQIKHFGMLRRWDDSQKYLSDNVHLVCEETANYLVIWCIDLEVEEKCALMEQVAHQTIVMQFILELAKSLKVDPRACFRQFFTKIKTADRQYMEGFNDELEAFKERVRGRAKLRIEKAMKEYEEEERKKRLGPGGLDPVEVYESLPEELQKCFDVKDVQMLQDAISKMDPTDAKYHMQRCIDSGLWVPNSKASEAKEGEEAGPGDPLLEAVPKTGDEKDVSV

Substance | Kd [1] [nM] | stoichiometry N (sBRAF L597R (human))
sBRAF, solubilized version of BRAF kinase domain (residues 423-723), V600 background (from UniProt P15056 423-723) (domain or fragment) | 1000 | 
sBRAF F595V (from UniProt P15056 423-723) (domain or fragment) | 1400 | 
sBRAF L597A (from UniProt P15056 423-723) (domain or fragment) | 230 | 
sBRAF L597R-V600E (from UniProt P15056 423-723) (domain or fragment) | 340 | 

Continued, values first:

Kd [1] [nM] | stoichiometry N (sBRAF L597R (human)) | Substance
500 |  | sBRAF F595A (from UniProt P15056 423-723) (domain or fragment)
470 |  | sBRAF T599E-V600E-S602D (from UniProt P15056 423-723) (domain or fragment)
1200 |  | sBRAF D594V (from UniProt P15056 423-723) (domain or fragment)
230 |  | sBRAF T599W-V600E (from UniProt P15056 423-723) (domain or fragment)
 | 2 | sBRAF L597R (from UniProt P15056 423-723) (domain or fragment)
